Measurements reported in article doi:10.1101/2022.11.15.516577.
Read-outs that look alike come from different tables or passages of the source.

Columns and labels:
Assay in all cases: single-molecule TIRF colocalisation with deconvolution of colocalisation times
[1] = biological target: N-terminally SNAP-tagged human β2AR carrying the vasopressin V2 receptor C-tail (SNAP-β2V2)
[2] = biological target: N-terminally SNAP-tagged human β2AR carrying the vasopressin V2 receptor C-tail (SNAP-β2V2); remark: listed apart in the source
[3] = biological target: N-terminally SNAP-tagged human β2AR carrying the vasopressin V2 receptor C-tail (SNAP-β2V2); remark: listed apart in the source

Measured: average interaction time

C-terminally Halo-tagged bovine β-arrestin 2 (βArr2-Halo) (from UniProt P32120-2 1-409) (natural protein)
1 s: all assays above
